Legend:
ENTPD2 = biological target: T1, ENTPD2 (Homo sapiens, UniProt Q9Y5L3); assay: Cell-based screen of hybridoma-derived mAbs for inhibition of ATP hydrolysis by ENTPD2
T1 sequence (Q9Y5L3 1-495): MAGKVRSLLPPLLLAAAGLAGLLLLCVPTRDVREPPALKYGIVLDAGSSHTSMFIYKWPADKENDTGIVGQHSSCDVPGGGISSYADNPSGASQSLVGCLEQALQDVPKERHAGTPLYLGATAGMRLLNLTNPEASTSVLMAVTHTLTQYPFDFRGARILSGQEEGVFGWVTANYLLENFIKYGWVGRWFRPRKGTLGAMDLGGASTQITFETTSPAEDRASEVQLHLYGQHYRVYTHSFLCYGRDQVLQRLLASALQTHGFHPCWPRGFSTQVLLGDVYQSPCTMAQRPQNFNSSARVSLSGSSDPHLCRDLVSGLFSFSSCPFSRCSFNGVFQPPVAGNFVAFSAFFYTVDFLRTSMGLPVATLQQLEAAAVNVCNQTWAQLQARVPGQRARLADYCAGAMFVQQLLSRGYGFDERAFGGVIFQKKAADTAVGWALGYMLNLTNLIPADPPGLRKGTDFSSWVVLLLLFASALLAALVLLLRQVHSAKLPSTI
Excerpt: Hybridoma-derived mAbs were screened in a cell-based assay for inhibition of ATP hydrolysis by ENTPD2.

[1] = biological target: T2, recombinant human ENTPD2 (residues 29-462) (Homo sapiens, UniProt Q9Y5L3); assay: Biochemical human ENTPD2 functional assay (Transcreener ADP2 TR-FRET)
T2 construct: residues 29-462 of human or cyno ENTPD2; GP67 signal peptide (N); made in house; host or cells: High Five (Trichoplusia ni) insect cells, baculovirus
T2 sequence (Q9Y5L3 29-462): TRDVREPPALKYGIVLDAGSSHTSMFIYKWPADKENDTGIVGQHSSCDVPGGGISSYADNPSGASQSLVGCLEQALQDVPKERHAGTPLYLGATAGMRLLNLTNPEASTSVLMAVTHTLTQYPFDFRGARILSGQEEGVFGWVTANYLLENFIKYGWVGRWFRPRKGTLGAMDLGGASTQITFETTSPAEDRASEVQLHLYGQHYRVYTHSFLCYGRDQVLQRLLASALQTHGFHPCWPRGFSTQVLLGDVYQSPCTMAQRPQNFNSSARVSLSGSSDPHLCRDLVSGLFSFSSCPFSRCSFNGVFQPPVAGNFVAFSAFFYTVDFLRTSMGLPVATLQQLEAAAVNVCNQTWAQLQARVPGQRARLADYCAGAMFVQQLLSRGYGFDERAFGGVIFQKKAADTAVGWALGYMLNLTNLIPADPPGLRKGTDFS
Excerpt: Biochemical and cell-based functional assays were developed in-house to understand functional impact of anti-ENTPD2 Abs against purified extracellular domain of ENTPD2 (residues 29-462), as well as against the fully intact protein in the context of the native cell-based conformation. ENTPD2 hydrolyzes ATP to ADP, which can subsequently be detected using the HTRF Transcreener ADP2 TR-FRET Red Assay (BellBrook Labs, Madison, Wis.) where ENTPD2-produced ADP would compete with the ADP Tracer for binding to the anti-ADP-Tb antibody. The resulting signal is inversely proportional to the concentration of ADP in the sample. […]
HTRF signal (Emission at 620 nm and 665 nm) was assessed in both assays using the Envision plate reader in HTRF mode (Perkin Elmer, Waltham, Mass.). HTRF ratio was determined using the following formula: HTRF ratio=R=Emission at 665 nm/Emission at 620 nm×10,000. Subsequently % Residual Activity and % Inhibition were determined as follows:
Where R0% is the HTRF ratio of the negative control (0% enzyme activity), and R100% is the HTRF ratio of the positive control (100% enzyme activity). Data were analyzed in Microsoft Excel and graphed using GraphPad's Prism 7.0 software and IC50 values were obtained using non-linear regression, log (agonist) vs. response-variable slope (four parameters) analysis.

B1: mAb17: hybridoma-derived anti-human ENTPD2 lead inhibitory mAb (chimeric); VH/VL DNA SEQ ID NO: 234/238 (antibody, V domains shown)
VH: EVQLQQFGAELVKPGASVKISCKASGYTFTDYNMDWVKQSHGKSLEWIGDINPKYDISTYNQQFKGKATLTVDKSSSTAYMELRSLTSEDTAVYYCARRGFFLYYGINYYYFDVWGAGTTVTVSS
VL: QIVLTQSPAIMSASLGEEITLTCSASSSVSYIHWYQQKSGTSPTLLIYSTSNLASGVPSRFSGSGSGTFYSLTISSVEAEDAADYYCHQWSSYPWTFGGGTKLEIK
modifications: constant regions not cited
ENTPD2
  inhibition of ATP hydrolysis by ENTPD2 (screen outcome): lead inhibitory mAbs
[1]
  inhibition of the catalytic activity of recombinant human ENTPD2: potently inhibit
